Experimental data from IntAct's records for PubMed 11447112.

Biological target: gapa_dicdi gapA (UniProt O00899)
Sequence (O00899 whole entry): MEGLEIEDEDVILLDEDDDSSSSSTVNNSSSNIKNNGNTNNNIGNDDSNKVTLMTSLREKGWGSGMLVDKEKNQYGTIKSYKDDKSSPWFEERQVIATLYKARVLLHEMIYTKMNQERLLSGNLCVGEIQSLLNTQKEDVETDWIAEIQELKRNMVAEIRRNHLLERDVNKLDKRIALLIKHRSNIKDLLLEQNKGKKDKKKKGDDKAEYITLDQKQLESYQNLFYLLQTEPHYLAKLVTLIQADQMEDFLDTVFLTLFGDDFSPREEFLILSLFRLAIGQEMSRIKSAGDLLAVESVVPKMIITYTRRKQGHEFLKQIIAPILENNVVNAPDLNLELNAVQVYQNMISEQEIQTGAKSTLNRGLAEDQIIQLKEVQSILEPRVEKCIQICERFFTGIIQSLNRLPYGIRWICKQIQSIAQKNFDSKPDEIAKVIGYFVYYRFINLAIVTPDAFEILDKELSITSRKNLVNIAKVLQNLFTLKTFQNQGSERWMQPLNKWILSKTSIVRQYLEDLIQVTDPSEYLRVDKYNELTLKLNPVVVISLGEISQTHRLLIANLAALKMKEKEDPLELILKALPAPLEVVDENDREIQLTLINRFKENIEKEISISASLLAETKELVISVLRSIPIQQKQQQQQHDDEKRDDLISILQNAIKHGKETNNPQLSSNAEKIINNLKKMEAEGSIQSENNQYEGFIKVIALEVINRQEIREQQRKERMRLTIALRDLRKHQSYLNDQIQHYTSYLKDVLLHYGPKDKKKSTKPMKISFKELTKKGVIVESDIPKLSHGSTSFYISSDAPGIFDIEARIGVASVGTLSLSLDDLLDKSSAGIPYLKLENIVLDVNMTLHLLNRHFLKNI

Substance: Rho-related protein rac1A (Dictyostelium discoideum (Slime mold)), P34144 G12N
- effect of a mutation on the interaction: disrupting interaction
